These are literature values, as cited in PMC5466818.

One may read the Kd as a measure of binding affinity in units of concentration.

This data set concerns the target formin Bnr1 (Saccharomyces cerevisiae) (UniProt P40450).
Sequence of UniProt P40450 (P40450 whole entry): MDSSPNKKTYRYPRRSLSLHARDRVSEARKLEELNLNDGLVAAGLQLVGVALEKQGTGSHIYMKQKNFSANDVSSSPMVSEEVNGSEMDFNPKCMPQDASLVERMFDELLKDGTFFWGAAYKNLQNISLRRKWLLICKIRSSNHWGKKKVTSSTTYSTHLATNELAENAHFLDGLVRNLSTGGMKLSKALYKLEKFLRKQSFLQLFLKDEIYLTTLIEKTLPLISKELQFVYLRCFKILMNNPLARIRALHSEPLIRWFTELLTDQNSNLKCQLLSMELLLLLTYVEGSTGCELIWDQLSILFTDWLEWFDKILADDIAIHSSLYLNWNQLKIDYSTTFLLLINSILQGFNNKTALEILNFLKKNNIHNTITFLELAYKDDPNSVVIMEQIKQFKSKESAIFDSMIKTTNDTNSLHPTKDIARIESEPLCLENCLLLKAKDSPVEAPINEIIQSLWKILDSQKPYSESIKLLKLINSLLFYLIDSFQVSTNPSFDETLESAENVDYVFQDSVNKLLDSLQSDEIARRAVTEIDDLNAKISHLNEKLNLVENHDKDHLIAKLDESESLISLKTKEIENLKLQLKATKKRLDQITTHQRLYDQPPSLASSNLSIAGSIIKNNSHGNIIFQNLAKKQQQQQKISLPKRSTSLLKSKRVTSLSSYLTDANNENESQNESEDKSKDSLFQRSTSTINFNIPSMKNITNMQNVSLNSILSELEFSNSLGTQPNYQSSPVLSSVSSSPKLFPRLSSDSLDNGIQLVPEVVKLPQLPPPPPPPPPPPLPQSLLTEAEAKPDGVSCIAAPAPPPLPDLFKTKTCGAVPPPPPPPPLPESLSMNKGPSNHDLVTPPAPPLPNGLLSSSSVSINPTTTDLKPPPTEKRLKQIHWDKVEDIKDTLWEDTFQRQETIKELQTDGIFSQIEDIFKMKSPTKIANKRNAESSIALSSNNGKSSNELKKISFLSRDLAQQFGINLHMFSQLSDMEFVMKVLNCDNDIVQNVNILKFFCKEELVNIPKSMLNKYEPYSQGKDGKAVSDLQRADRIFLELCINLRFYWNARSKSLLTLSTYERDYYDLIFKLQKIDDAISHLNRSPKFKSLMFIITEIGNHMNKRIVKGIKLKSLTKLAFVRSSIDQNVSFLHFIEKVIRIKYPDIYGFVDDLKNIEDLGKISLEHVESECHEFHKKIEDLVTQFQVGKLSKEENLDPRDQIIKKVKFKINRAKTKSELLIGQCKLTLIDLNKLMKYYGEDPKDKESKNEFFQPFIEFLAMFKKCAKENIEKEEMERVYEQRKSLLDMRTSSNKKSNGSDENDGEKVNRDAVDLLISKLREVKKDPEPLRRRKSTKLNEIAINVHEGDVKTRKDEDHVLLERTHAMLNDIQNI

On to Bud14 (from UniProt P27637), for which the Kd was 15 nM.
